In paper doi:10.1101/636423:

What was measured:
[1] = target: whole intracellular region of rat PTPRZ (rat PTPRZ-ICR) (rat) (UniProt Q62656); experiment: inhibition of PTPase catalytic activity
[2] = target: whole intracellular region of rat PTPRZ (rat PTPRZ-ICR) (rat) (UniProt Q62656); experiment: native MS

F2Pmp-GIT1_(550–556), non-hydrolyzable pTyr mimetic (F2Pmp)-containing substrate-mimetic inhibitor peptide, sequence (Q9Z272 whole entry, looked up, tested part not stated): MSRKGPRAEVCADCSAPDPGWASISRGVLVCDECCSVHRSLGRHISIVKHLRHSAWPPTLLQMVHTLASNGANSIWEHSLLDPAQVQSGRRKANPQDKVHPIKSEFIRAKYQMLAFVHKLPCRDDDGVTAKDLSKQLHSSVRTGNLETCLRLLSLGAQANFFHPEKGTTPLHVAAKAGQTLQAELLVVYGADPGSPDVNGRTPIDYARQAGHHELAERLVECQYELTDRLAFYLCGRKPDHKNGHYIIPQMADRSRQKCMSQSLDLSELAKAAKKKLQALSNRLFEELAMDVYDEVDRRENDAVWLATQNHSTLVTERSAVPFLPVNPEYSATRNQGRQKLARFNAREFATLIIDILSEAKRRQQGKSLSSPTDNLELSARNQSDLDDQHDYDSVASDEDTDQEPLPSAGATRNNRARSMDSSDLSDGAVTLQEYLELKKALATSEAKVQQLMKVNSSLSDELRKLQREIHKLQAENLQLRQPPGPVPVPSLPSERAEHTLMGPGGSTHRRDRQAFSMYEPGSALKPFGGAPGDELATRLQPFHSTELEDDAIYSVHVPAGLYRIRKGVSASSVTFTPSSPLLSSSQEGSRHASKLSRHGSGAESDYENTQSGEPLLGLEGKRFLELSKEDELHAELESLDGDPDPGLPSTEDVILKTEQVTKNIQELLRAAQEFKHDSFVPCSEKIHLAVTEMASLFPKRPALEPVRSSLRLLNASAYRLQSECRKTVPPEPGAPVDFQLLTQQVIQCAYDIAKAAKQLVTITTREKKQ
whole intracellular region of rat PTPRZ (rat PTPRZ-ICR) (rat), sequence (Q62656 1699-2316): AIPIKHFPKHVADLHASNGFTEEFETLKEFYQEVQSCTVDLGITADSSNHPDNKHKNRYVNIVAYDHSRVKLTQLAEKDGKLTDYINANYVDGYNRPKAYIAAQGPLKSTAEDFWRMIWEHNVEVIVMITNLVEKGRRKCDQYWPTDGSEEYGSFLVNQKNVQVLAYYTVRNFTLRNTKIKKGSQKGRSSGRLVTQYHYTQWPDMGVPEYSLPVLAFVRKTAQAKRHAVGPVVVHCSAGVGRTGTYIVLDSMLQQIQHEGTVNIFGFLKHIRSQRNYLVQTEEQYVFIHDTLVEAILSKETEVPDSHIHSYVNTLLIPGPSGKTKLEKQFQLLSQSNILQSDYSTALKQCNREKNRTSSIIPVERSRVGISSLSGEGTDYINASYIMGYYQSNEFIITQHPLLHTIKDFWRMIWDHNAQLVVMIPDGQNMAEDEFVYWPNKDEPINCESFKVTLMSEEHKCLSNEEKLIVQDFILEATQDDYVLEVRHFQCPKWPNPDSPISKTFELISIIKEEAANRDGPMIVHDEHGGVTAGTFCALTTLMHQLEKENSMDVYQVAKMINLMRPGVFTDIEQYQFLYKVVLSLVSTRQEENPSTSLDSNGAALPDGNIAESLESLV

Ki [1]: 3.1 µM
stoichiometry N [2]: 1
Substance: F2Pmp-GIT1_(550–556), non-hydrolyzable pTyr mimetic (F2Pmp)-containing substrate-mimetic inhibitor peptide (from UniProt Q9Z272 550-556)
